This note sets out measurements from patent US20090082270A1 (ACCELERON PHARMA, published 2009).

B2: Activin A (ligand, UniProt P08476 311-426, looked up)
chain: GLECDGKVNICCKKQFFVSFKDIGWNDWIIAPSGYHANYCEGECPSHIAGTSGSSLSFHSTVINHYRMRGHSPFANLKSCCVPTKLRPMSMLYYDDGQNIIKKDIQNMIVEECGCS

The assay “Activin A” addresses B2. Put plainly: "similar experiments" to the A-204 reporter gene assay; method not further described.
A further assay has as its target T1, human Cerberus (human, UniProt O95813 18-267, limits assumed).
T1 construct: it includes the native leader
T1 sequence: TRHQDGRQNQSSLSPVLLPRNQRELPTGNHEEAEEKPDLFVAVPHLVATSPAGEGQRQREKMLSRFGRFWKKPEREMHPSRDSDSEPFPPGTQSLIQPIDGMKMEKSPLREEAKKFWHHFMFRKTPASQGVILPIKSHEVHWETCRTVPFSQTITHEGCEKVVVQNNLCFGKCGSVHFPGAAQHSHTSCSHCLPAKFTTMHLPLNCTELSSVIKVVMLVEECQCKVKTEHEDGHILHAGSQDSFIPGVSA
Described as above.

B1: Human Coco, full length, Fc (TGGG linker and mFc) (Fc fusion)
chain: GRPEPQSPRPQSWAAANQTWALGPGALPPLVPASALGSWKAFLGLQKARQLGMGRLQRGQDEVAAVTLPLNPQEVIQGMCKAVPFVQVFSRPGCSAIRLRNHLCFGHCSSLYIPGSDPTPLVLCNSCMPARKRWAPVVLWCLTGSSASRRRVKISTMLIEGCHCSPKATGGGTHTCPPCPAPELLGGPSVFLFPPKPKDTLMISRTPEVTCVVVDVSHEDPEVKFNWYVDGVEVHNAKTKPREEQYNSTYRVVSVLTVLHQDWLNGKEYKCKVSNKALPVPIEKTISKAKGQPREPQVYTLPPSREEMTKNQVSLTCLVKGFYPSDIAVEWESNGQPENNYKTTPPVLDSDGSFFLYSKLTVDKSRWQQGNVFSCSVMHEALHNHYTQKSLSLSPGK
notes: Tested as conditioned medium; also called Coco-mFc; human Coco-mFc
Consider B1, for which, in the assay with Activin A, the binding result is given as “no binding”. In the case of B2, the binding result with human Cerberus is on record as “no binding”.
